Data: patent publication US20230212533A1, “PRODUCTS AND METHODS FOR THE TREATMENT OF NICOTINE DEPENDENCE” (THE REGENTS OF THE UNIVERSITY OF MICHIGAN, priority 2020, published 2023)

Molecular target: CycN cytochrome c protein (Pseudomonas putida S16) (Pseudomonas putida S16)
Test: anaerobic stopped-flow spectrophotometry at 542 nm, 4 °C; NicA2-Flred mixed with excess CycNox; linear fit of first-phase kobs against CycNox concentration, said to report on the bimolecular association of the two proteins

kon: 1.3e+06 M⁻¹ s⁻¹
B1: NicA2 nicotine oxidoreductase (wild-type, Pseudomonas putida S16) (enzyme)
chain: TQKTNRASTVKGGFDYDVVVVGGGFAGATAARECGLQGYRTLLLEARSRLGGRTFTSRFAGQEIEFGGAWVHWLQPHVWAEMQRYGLGVVEDPLTNLDKTLIMYNDGSVESISPDEFGKNIRIAFEKLCHDAWEVFPRPHEPMFTERARELDKSSVLDRIKTLGLSRLQQAQINSYMALYAGETTDKFGLPGVLKLFACGGWNYDAFMDTETHYRIQGGTIGLINAMLTDSGAEVRMSVPVTAVEQVNGGVKIKTDDDEIITAGVVVMTVPLNTYKHIGFTPALSKGKQRFIKEGQLSKGAKLYVHVKQNLGRVFAFADEQQPLNWVQTHDYSDELGTILSITIARKETIDVNDRDAVTREVQKMFPGVEVLGTAAYDWTADPFSLGAWAAYGVGQLSRLKDLQAAEGRILFAGAETSNGWHANIDGAVESGLRAGREVKQLLS
